Reference: patent US20260028421A1 (JIANGSU HENGRUI PHARMACEUTICALS, published 2026)
Substitutions are numbered along the chain they refer to.

B1: P1-F10 CHI (antibody, human IgG1, kappa, V domains shown)
VH: EVQLVESGGGLVKPGGSLKLSCAASGFAFSDYGMHWVRQAPEKGLEWVAHISSGSSTIYYADTVKGRFTISRDNVKNTLFLQMTSLRSEDTAMYYCARSRNYYGSRVFDYWGQGTPLTVSS
VL: QIVLTQSPALMSVSPGEKVTMTCSASSSVNYMYWYQQKPRSSPKPWIYLTSNLASGVPARFSGSGSGTSYSLTISSMEAEDAATYYCQQWNSNPPTFGSGTKLEIKR
notes: chimeric
B2: P1-D9 CHI (antibody, human IgG1, kappa, V domains shown)
VH: B1 VH with A28S, V48I, V75A, V107I, P116T
VL: B1 VL with L10R, V13A, N30S, N91S
notes: chimeric
B3: P3-D9 CHI (antibody, human IgG1, kappa, V domains shown)
VH: B1 VH with A61G, V75A, A97T, P116T
VL: B1 VL with N30S, N52S, S75N, S76N, M77V, N91S, L103V
notes: chimeric
B4: P1-D3 CHI (antibody, human IgG1, kappa, V domains shown)
VH: QIQLIQSGPELKKPGETVKISCKASGYTFTTYGMSWVKQAPGKGLKWMGWINTYSGVPTYADDFKGRFAFSLETSANTAYLQINNLKNEDTATYFCARRGYSNLYYYALDYWGQGASVTVSS
VL: QIVLTQSPAIMSASPGEKVTMTCSASSSVNYMHWYQQKSGTSPKRWIYDTSKLASGVPTRFSGSGSGTSYSLTISSMEAEDAATYFCQQWSSNPSTFGGGTKLEIKR
notes: chimeric
B5: P3-B4 CHI (antibody, human IgG1, kappa, V domains shown)
VH: B4 VH with I5V, T17I, N77S, G100A, Y101G, N103S, L109M, A116T
VL: B4 VL with N30S, H33L, T59A, F86Y, S95P
notes: chimeric
B6: P3-F6 CHI (antibody, human IgG1, kappa, V domains shown)
VH: EVQLQQSGPELVKPGASVKISCKASGYTFTDYYMNWVKQSHGKSLEWIGDINPNNGGTSYNQKFKGKATLTVDKSSSTAYMELRSLTSEDSAVYYCARKTWLPYASVYWGQGTSVTVSS
VL: DVVMTQTPLSLPVSLGDQASISCRSSQSLVHSNGNTYLHWYLQKPGQSPKLLIYKVSNRFSGVPDRFSGSGSGTDFTLKISRVEAEDLGVYFCSQSTHVPPYTFGGGTKLEIKR
notes: chimeric
B7: P1-D2 CHI (antibody, human IgG1, kappa, V domains shown)
VH: EFQLQQSGPELVKPGASVKISCKASGYSFTDHNMNWVKQSNGKSLEWIGVINPKYGTISNNQKFKGKATLTVDQSSSTAYMQLNSLTAEDSAVYYCARDDYPNYFDYWGQGTTLTVSS
VL: QIVLTQSPAIMSASPGEKVTISCSANSSVNYIYWYQQKPGSSPKPWIYRTSNLASGVPARFSGSGSGTSYSLTISSMEAEDAATYYCQQYHSFPPTFGGGTKLEIKR
notes: chimeric
B8: HJ-3 (bispecific antibody)
chain 1: not shown
chain 2: DIQMTQSPSSVSASVGDRVTITCRASQDIANYLSWYQQKPGKSPKLLIYGTSNLEVGVPSRFSGSRSGTDFTLTISSLQPEDFATYYCLQDKEFPRTFGGGTKVEIKGGGGSSGAPRFLTRPLAFVVSVGKDATLSSQIVGNPTPQVSWEKDKQPVTAGARFRLAQDGDLYRLKILDLQLSDSGQYVSRARNAIGEAFACLGLQVDAEA
chain 3: EVQLVQSGAEVKKPGSSVKVSCKASGYTFSNYLIEWVRQAPGQGLEWIGVIDPGVGDTNYNENFKGRATLTADKSTSTAYIELSSLRSEDTAVYYCAREDNTGTAFDYWGQGTTVTVSSASTKGPSVFPLAPSSKSTSGGTAALGCLVKDYFPEPVTVSWNSGALTSGVHTFPAVLQSSGLYSLSSVVTVPSSSLGTQTYICNVNHKPSNTKVDKKVEPKSCDKTHTCPPCPAPEAAGGPSVFLFPPKPKDTLMISRTPEVTCVVVDVSHEDPEVKFNWYVDGVEVHNAKTKPREEQYNSTYRVVSVLTVLHQDWLNGKEYKCKVSNKALPAPIEKTISKAKGQPREPQVCTLPPSREEMTKNQVSLSCAVKGFYPSDIAVEWESNGQPENNYKTTPPVLDSDGSFFLVSKLTVDKSRWQQGNVFSCSVMHEALHNHYTQKSLSLSPGKDYKDDDDK
chain 4: SIVMTQTPLSLSVTPGQPASISCKASQSVSSDVTWYLQKPGQSPQLLIYYVSEHYTGVPDRFSGSGYGTDFTLKISRVEAEDVGVYYCQQHHRFPLTFGQGTKLEIKRTVAAPSVFIFPPSDEQLKSGTASVVCLLNNFYPREAKVQWKVDNALQSGNSQESVTEQDSKDSTYSLSSTLTLSKADYEKHKVYACEVTHQGLSSPVTKSFNRGEC
B9: HJ-9 (bispecific antibody)
chain 1: not shown
chain 2: B8 chain 2 with G108R, G109T, G110V, G111A, R121C, L123K, F125S, T144F, A160V, I194H
chain 3: EVQLVQSGAEVKKPGSSVKVSCKASGYTFSNYLIEWVRQAPGQGLEWIGVIDPGVGDTNYNENFKGRATLTADKSTSTAYIELSSLRSEDTAVYYCAREDNTGTAFDYWGQGTTVTVSSASTKGPSVFPLAPSSKSTSGGTAALGCLVKDYFPEPVTVSWNSGALTSGVHTFPAVLQSSGLYSLSSVVTVPSSSLGTQTYICNVNHKPSNTKVDKKVEPKSCDKTHTCPPCPAPEAAGGPSVFLFPPKPKDTLMISRTPEVTCVVVDVSHEDPEVKFNWYVDGVEVHNAKTKPREEQYNSTYRVVSVLTVLHQDWLNGKEYKCKVSNKALPAPIEKTISKAKGQPREPQVCTLPPSREEMTKNQVSLSCAVKGFYPSDIAVEWESNGQPENNYKTTPPVLDSDGSFFLVSKLTVDKSRWQQGNVFSCSVMHEALHNHYTQKSLSLSPGK
chain 4: B8 chain 4
B10: HJ-8 (bispecific antibody)
chain 1: not shown
chain 2: B8 chain 2 with G108R, G109T, G110V, G111A, L123K, F125S, T144F, A160V, I194H
chain 3: B9 chain 3
chain 4: B8 chain 4
B11: HJ-5 (bispecific antibody)
chain 1: not shown
chain 2: B8 chain 2 with L123K, F125S, T144F, A160V, I194H
chain 3: B9 chain 3
chain 4: B8 chain 4
B12: HJ-6 (bispecific antibody)
chain 1: not shown
chain 2: B8 chain 2 with R121C, L123K, F125S, T144F, A160V, I194H
chain 3: B9 chain 3
chain 4: B8 chain 4
B13: HJ-11 (bispecific antibody)
chain 1: not shown
chain 2: DIQMTQSPSSVSASVGDRVTITCRASQDIANYLSWYQQKPGKSPKLLIYGTSNLEVGVPSRFSGSRSGTDFTLTISSLQPEDFATYYCLQDKEFPRTFGGGTKVEIKRTVASSGCPRFLTRPKASVVSVGKDATLSCQIVGNPFPQVSWEKDKQPVTAGVRFRLAQDGDLYRLKILDLQLSDSGQYVCRARNAHGEAFACLGLQVDAEA
chain 3: B9 chain 3
chain 4: B8 chain 4
B14: HJ-7 (bispecific antibody)
chain 1: not shown
chain 2: B13 chain 2 with R108G, T109G, V110G, A111G, C115A
chain 3: B9 chain 3
chain 4: B8 chain 4
B15: HJ-10 (bispecific antibody)
chain 1: not shown
chain 2: B13 chain 2 with C115A
chain 3: B9 chain 3
chain 4: B8 chain 4
B16: PL-18 (bispecific antibody)
chain 1: not shown
chain 2: DIVLTQSPASLAVSPGQRATITCRASESVSIHGTHLMHWYQQKPGQPPKLLIYAASKLESGVPARFSGSGSGTDFTLTINPVEAEDTANYYCQQSFEDPLTFGQGTKLEIKRTVASGIPPKIECLPIDISIDEGKCLTVASAFTGEPTPEVTWSTGGRKIHSQEQGRFHIENTDDSTTLTIKDVQKQDGGLYTLTLRNEFGSDSATVNIHIRSI
chain 3: not shown
chain 4: not shown
B17: PL-19 (bispecific antibody)
chain 1: not shown
chain 2: B16 chain 2 with C136V, A142C
chain 3: not shown
chain 4: not shown

biological target: T1, hGUCY2C ECD-His (human, UniProt P25092 24-430); assay: SPR Biacore, antibody captured
T1 construct: also called human GUCY2C protein
Source text: To test the affinity of the GUCY2C monoclonal antibodies of the present disclosure for GUCY2C, in this test example, the instruments Biacore 8K and Biacore T200 were used to detect the ability of the antibodies to bind to hGUCY2C-ECD-His (SEQ ID NO: 3). The specific method is as follows: The antibody was affinity-captured using a Protein A biosensor chip conjugated with an anti-human antibody, then a solution containing GUCY2C Protein flowed on the surface of the chip, and reaction signals were detected in real time with an instrument to obtain association and dissociation curves. After dissociation was completed for each cycle, the biosensor chip was washed with 10 mM glycine-hydrochloric acid (pH 1.5) for regeneration. Data fitting was performed using a 1:1 model.

Kd [nM] | koff [s⁻¹] | kon [M⁻¹ s⁻¹] | Binder
8.64 | 0.000279 | 32300 | B1
19.6 | 0.000399 | 20300 | B2
26.5 | 0.000504 | 19000 | B3
5.06 | 0.000233 | 46000 | B4
8.28 | 0.000214 | 25800 | B5
37 | 0.000245 | 6610 | B6
0.92 | 0.00018 | 195000 | B7

biological target: T2, Human GUCY2C protein on cells (HCT116/hGUCY2C, HT-55, T84, LS1034, LS174T) (human, UniProt P25092 24-1073); assay: flow cytometry on HCT116/hGUCY2C cells, PE anti-human IgG Fc secondary antibody
T2 construct: also called GUCY2C on the cell surface

EC50 (read off the curve) [nM] | Binder
~1 | B3
~2 | B5
~2 | B6

biological target: hIL5 (human, UniProt P05113 20-134); assay: ELISA

EC50 [nM] | Binder
17.4 | B8
10.9 | B9
18.7 | B10
16 | B11
37 | B12
9.46 | B13
17.7 | B14
20.8 | B15

biological target: hTSLP (human, UniProt Q969D9 29-159); assay: ELISA

EC50 [nM] | Binder
3.23 | B8
3.18 | B9
3.33 | B10
2.64 | B11
2.88 | B12
3 | B13
2.18 | B14
3.17 | B15

biological target: hPDL1 (human, UniProt Q9NZQ7 19-238); assay: ELISA
Sequence (Q9NZQ7 19-238 limits assumed): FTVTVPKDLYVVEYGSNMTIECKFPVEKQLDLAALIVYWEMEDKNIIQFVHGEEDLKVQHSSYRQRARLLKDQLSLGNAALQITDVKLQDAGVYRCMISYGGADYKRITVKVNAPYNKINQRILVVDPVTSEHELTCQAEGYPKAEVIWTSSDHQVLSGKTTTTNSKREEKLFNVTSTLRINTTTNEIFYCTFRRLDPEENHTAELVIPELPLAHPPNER

EC50 [nM] | Binder
1.6 | B16
1.6 | B17

biological target: hCTLA4 (human, UniProt P16410 36-161); assay: ELISA
Sequence (P16410 36-161 limits assumed): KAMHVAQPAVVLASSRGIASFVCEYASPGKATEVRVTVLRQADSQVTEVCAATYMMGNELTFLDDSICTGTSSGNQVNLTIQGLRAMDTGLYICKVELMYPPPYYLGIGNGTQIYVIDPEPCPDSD

EC50 [nM] | Binder
6.7 | B16
6.5 | B17

biological target: T2, Human GUCY2C protein on cells …; assay: flow cytometry on HCT116/hGUCY2C cells, PE anti-human IgG Fc secondary antibody; remark: another data set of the same source

EC50 (read off the curve) [nM] | Binder
~0.6 | B1
~0.7 | B2
~1 | B4
~0.7 | B7
